Test results: patent publication US20190330374A1 (IGM BIOSCIENCES, published 2019)

B1: Anti-OX40 #1-IgM (antibody, V domains shown)
VH: QVQLQESGPGLVKPSQTLSLTCAVYGGSFSSGYWNWIRKHPGKGLEYIGYISYNGITYHNPSLKSRITINRDTSKNQYSLQLNSVTPEDTAVYYCARYKYDYDGGHAMDYWGQGTLVTVSS
VL: DIQMTQSPSSLSASVGDRVTITCRASQDISNYLNWYQQKPGKAPKLLIYYTSKLHSGVPSRFSGSGSGTDYTLTISSLQPEDFATYYCQQGSALPWTFGQGTKVEIK
B2: Anti-OX40 #1-IgG (antibody, V domains shown)
VH: B1 VH
VL: B1 VL
notes: VH and VL put into an IgG format by standard cloning; It was detected with anti-human kappa light chain, so the light chain is kappa; also called anti-OX40 IgG #1

Columns and labels:
[1] = target: OX40 in the PathHunter U2OS OX40 Signaling Assay (DiscoverX) cells; experiment: cell-based or functional assay
[2] = target: T1, OX40 on activated T cells (PBMCs activated with Human T cell Activator Dynabeads) (human, UniProt P43489 29-277); experiment: flow cytometry on activated PBMC T cells
T1 construct: Native OX40 on donor PBMC T cells; also called OX40 on CD8+ T cells (low levels); OX40 on CD4+ T cells (high levels)
T1 sequence: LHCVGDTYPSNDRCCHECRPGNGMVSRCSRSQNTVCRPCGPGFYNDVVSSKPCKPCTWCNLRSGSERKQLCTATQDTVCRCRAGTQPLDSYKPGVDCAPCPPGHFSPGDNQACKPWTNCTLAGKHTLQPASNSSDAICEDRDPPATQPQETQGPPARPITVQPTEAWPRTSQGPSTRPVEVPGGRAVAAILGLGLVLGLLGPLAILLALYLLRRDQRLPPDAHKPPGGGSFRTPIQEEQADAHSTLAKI

Row | Binder | fold increase in NF-kB activation (RLU at the highest antibody concentration) compared to uncross-linked Anti-OX40 #1-IgG [1] [fold] | fold increase in signaling activation (RLU at the highest antibody concentration) compared to cross-linked Anti-OX40 #1-IgG [1] [fold] | binding result [2]
1 | B1 | 23 | 13 | –
2 | B2 | – | – | binds
